Assay results reported in paper PMC5854672, “Solution structure of extracellular loop of human β4 subunit of BK channel and its biological implication on ChTX sensitivity” (Scientific Reports, 2018).

What was measured:
[1] = target: mSlo1 channel (BKα subunit of mouse, alone) (mouse) (UniProt Q08460)
mSlo1/β4(H101Y) channel = target: T1, mSlo1/β4(H101Y) channel (mouse | human, UniProt Q08460 1-1209; Q86W47 1-210, H101Y); assay: patch-clamp electrophysiology (time course of current block); outside-out patches of transfected HEK293 cells perfused with 1 μM ChTX; steps to +100 mV, intracellular 10 μM Ca2+; τon and τoff fitted to a first order bimolecular reaction scheme; KD = [ChTX]/((τoff/τon) − 1); settings: one partner purified
T1 construct: mSlo1, BK channel α subunit (KCNMA1) of mouse, full-length cDNA, GenBank HQ221747.1; human BK channel β4 subunit (KCNMB4), full-length cDNA, GenBank AF207992.1; source: HEK293, transiently co-transfected (pcDNA3.1(+)), in excised membrane patches; copies: 4 + 4

mSlo1/β4(N123D) channel [2] = target: T2, mSlo1/β4(N123D) channel (mouse | human, UniProt Q08460 1-1209; Q86W47 1-210, N123D); assay: as above; settings: one partner purified
T2 construct: mSlo1, BK channel α subunit (KCNMA1) of mouse, full-length cDNA, GenBank HQ221747.1; human BK channel β4 subunit (KCNMB4), full-length cDNA, GenBank AF207992.1; source: HEK293, transiently co-transfected (pcDNA3.1(+)), in excised membrane patches; copies: 4 + 4

mSlo1/β4(N123V) channel = target: T3, mSlo1/β4(N123V) channel (mouse | human, UniProt Q08460 1-1209; Q86W47 1-210, N123V); assay: as above; settings: one partner purified
T3 construct: mSlo1, BK channel α subunit (KCNMA1) of mouse, full-length cDNA, GenBank HQ221747.1; human BK channel β4 subunit (KCNMB4), full-length cDNA, GenBank AF207992.1; source: HEK293, transiently co-transfected (pcDNA3.1(+)), in excised membrane patches; copies: 4 + 4

mSlo1/β4(N123F) channel = target: T4, mSlo1/β4(N123F) channel (mouse | human, UniProt Q08460 1-1209; Q86W47 1-210, N123F); assay: as above; settings: one partner purified
T4 construct: mSlo1, BK channel α subunit (KCNMA1) of mouse, full-length cDNA, GenBank HQ221747.1; human BK channel β4 subunit (KCNMB4), full-length cDNA, GenBank AF207992.1; source: HEK293, transiently co-transfected (pcDNA3.1(+)), in excised membrane patches; copies: 4 + 4

mSlo1/β4(N123E) channel [3] = target: T5, mSlo1/β4(N123E) channel (mouse | human, UniProt Q08460 1-1209; Q86W47 1-210, N123E); assay: as above; settings: one partner purified
T5 construct: mSlo1, BK channel α subunit (KCNMA1) of mouse, full-length cDNA, GenBank HQ221747.1; human BK channel β4 subunit (KCNMB4), full-length cDNA, GenBank AF207992.1; source: HEK293, transiently co-transfected (pcDNA3.1(+)), in excised membrane patches; copies: 4 + 4

mSlo1/β4(N123K) channel [4] = target: T6, mSlo1/β4(N123K) channel (mouse | human, UniProt Q08460 1-1209; Q86W47 1-210, N123K); assay: as above; settings: one partner purified
T6 construct: mSlo1, BK channel α subunit (KCNMA1) of mouse, full-length cDNA, GenBank HQ221747.1; human BK channel β4 subunit (KCNMB4), full-length cDNA, GenBank AF207992.1; source: HEK293, transiently co-transfected (pcDNA3.1(+)), in excised membrane patches; copies: 4 + 4

mSlo1/β4 channel [5] = target: T7, mSlo1/β4 channel (mouse | human, UniProt Q08460 1-1209; Q86W47 1-210); assay: as above; settings: one partner purified
T7 construct: mSlo1, BK channel α subunit (KCNMA1) of mouse, full-length cDNA, GenBank HQ221747.1; human BK channel β4 subunit (KCNMB4), full-length cDNA, GenBank AF207992.1; also called BKα/β4; source: HEK293, transiently co-transfected (pcDNA3.1(+)), in excised membrane patches; copies: 4 + 4

mSlo1/β4(N123Y) channel = target: T8, mSlo1/β4(N123Y) channel (mouse | human, UniProt Q08460 1-1209; Q86W47 1-210, N123Y); assay: as above; settings: one partner purified
T8 construct: mSlo1, BK channel α subunit (KCNMA1) of mouse, full-length cDNA, GenBank HQ221747.1; human BK channel β4 subunit (KCNMB4), full-length cDNA, GenBank AF207992.1; source: HEK293, transiently co-transfected (pcDNA3.1(+)), in excised membrane patches; copies: 4 + 4

mSlo1/β4(N123A) channel [6] = target: T9, mSlo1/β4(N123A) channel (mouse | human, UniProt Q08460 1-1209; Q86W47 1-210, N123A); assay: as above; settings: one partner purified
T9 construct: mSlo1, BK channel α subunit (KCNMA1) of mouse, full-length cDNA, GenBank HQ221747.1; human BK channel β4 subunit (KCNMB4), full-length cDNA, GenBank AF207992.1; source: HEK293, transiently co-transfected (pcDNA3.1(+)), in excised membrane patches; copies: 4 + 4

mSlo1/β4(N123L) channel = target: T10, mSlo1/β4(N123L) channel (mouse | human, UniProt Q08460 1-1209; Q86W47 1-210, N123L); assay: as above; settings: one partner purified
T10 construct: mSlo1, BK channel α subunit (KCNMA1) of mouse, full-length cDNA, GenBank HQ221747.1; human BK channel β4 subunit (KCNMB4), full-length cDNA, GenBank AF207992.1; source: HEK293, transiently co-transfected (pcDNA3.1(+)), in excised membrane patches; copies: 4 + 4

mSlo1/β4(N123I) channel = target: T11, mSlo1/β4(N123I) channel (mouse | human, UniProt Q08460 1-1209; Q86W47 1-210, N123I); assay: as above; settings: one partner purified
T11 construct: mSlo1, BK channel α subunit (KCNMA1) of mouse, full-length cDNA, GenBank HQ221747.1; human BK channel β4 subunit (KCNMB4), full-length cDNA, GenBank AF207992.1; source: HEK293, transiently co-transfected (pcDNA3.1(+)), in excised membrane patches; copies: 4 + 4

[7] = target: T12, mSlo1 channel (BKα subunit of mouse, alone) (mouse, UniProt Q08460 1-1209); assay: as above; settings: one partner purified
T12 construct: mSlo1, BK channel α subunit (KCNMA1) of mouse, full-length cDNA, GenBank HQ221747.1; tetrameric Slo1; also called mSlo1 alone channel; source: HEK293, transiently transfected (pcDNA3.1(+)), in excised membrane patches

mSlo1/β4(N123R) channel [8] = target: T13, mSlo1/β4(N123R) channel (mouse | human, UniProt Q08460 1-1209; Q86W47 1-210, N123R); assay: as above; settings: one partner purified
T13 construct: mSlo1, BK channel α subunit (KCNMA1) of mouse, full-length cDNA, GenBank HQ221747.1; human BK channel β4 subunit (KCNMB4), full-length cDNA, GenBank AF207992.1; source: HEK293, transiently co-transfected (pcDNA3.1(+)), in excised membrane patches; copies: 4 + 4

mSlo1/β4(N123D) channel [9] = target: T2, mSlo1/β4(N123D) channel; assay: cell-based or functional assay
mSlo1/β4(N123E) channel [10] = target: T5, mSlo1/β4(N123E) channel; assay: cell-based or functional assay
mSlo1/β4(N123K) channel [11] = target: T6, mSlo1/β4(N123K) channel; assay: cell-based or functional assay
mSlo1/β4 channel [12] = target: T7, mSlo1/β4 channel; assay: cell-based or functional assay
mSlo1/β4(N123A) channel [13] = target: T9, mSlo1/β4(N123A) channel; assay: cell-based or functional assay
mSlo1/β4(N123R) channel [14] = target: T13, mSlo1/β4(N123R) channel; assay: cell-based or functional assay

T2 sequence (Q08460 whole entry, stated change not applied, one chain of several): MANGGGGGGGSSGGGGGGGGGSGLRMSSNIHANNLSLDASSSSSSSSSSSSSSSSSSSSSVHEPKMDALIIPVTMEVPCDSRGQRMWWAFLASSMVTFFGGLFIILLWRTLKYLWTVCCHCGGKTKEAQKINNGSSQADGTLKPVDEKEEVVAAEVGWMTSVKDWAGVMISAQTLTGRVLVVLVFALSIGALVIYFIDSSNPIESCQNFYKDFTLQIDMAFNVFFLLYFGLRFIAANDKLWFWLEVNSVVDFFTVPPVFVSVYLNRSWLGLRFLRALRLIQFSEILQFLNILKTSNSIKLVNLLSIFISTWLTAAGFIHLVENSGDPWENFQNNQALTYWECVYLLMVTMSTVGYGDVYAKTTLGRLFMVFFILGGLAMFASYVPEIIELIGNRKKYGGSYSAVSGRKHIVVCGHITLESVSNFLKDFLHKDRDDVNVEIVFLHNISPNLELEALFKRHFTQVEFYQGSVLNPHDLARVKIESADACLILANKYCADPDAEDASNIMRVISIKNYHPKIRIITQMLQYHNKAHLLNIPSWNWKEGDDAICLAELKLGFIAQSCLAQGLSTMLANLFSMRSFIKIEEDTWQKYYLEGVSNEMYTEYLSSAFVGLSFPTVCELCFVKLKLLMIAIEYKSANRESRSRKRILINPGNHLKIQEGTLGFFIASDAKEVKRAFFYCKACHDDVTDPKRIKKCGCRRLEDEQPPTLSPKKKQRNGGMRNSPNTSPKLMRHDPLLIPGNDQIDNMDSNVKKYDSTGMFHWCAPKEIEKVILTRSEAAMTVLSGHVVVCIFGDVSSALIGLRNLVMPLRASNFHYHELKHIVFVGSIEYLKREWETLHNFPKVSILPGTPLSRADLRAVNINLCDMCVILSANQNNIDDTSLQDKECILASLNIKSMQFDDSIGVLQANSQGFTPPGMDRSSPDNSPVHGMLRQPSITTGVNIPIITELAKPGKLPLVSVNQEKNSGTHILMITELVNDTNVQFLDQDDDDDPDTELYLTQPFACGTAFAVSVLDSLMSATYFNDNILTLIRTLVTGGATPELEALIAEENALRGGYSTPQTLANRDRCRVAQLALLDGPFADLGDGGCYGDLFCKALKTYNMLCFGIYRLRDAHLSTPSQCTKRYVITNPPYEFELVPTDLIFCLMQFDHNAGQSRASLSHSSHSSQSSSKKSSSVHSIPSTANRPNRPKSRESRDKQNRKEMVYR
T5 sequence (Q08460 whole entry, stated change not applied, one chain of several): as above
T12 sequence (Q08460 whole entry): as the sequence (Q08460 whole entry, stated change not applied, one chain of several) above
T7 sequence (Q08460 whole entry, one chain of several): as the sequence (Q08460 whole entry, stated change not applied, one chain of several) above
Chain of mSlo1 channel (BKα subunit of mouse, alone) (mouse) (Q08460 whole entry, the tested form may be a part): as the sequence (Q08460 whole entry, stated change not applied, one chain of several) above

B1: human β4 subunit of BK channel, full length (natural protein)
chain: MAKLRVAYEYTEAEDKSIRLGLFLIISGVVSLFIFGFCWLSPALQDLQATEANCTVLSVQQIGEVFECTFTCGADCRGTSQYPCVQVYVNNSESNSRALLHSDEHQLLTNPKCSYIPPCKRENQKNLESVMNWQQYWKDEIGSQPFTCYFNQHQRPDDVLLHRTHDEIVLLHCFLWPLVTFVVGVLIVVLTICAKSLAVKAEAMKKRKFS
thermodynamic double-mutant cycle on V1/2 of G-V curves (inside-out patches, 10 μM Ca2+): mSlo1(E264A) against β4(N123A), ΔΔV [1]: -42.4 mV

B2: Charybdotoxin (peptide)
chain: QFTNVSCTTSKECWSVCQRLHNTSRGKCMNKKCRCYS
notes: charybdotoxin (ChTX), scorpion toxin; also called ChTX; source: bought: Sigma-Aldrich (Art. No. C7802)
Kd (mSlo1/β4(H101Y) channel): 325 nM | τoff (mSlo1/β4(H101Y) channel): 32.6 s | τon (block at 1 μM ChTX) (mSlo1/β4(H101Y) channel): 8 s | Kd (mSlo1/β4(N123D) channel [2]): 72.6 nM | τoff (mSlo1/β4(N123D) channel [2]): 624 s | τon (block at 1 μM ChTX) (mSlo1/β4(N123D) channel [2]): 42.2 s | Kd (mSlo1/β4(N123V) channel): 61.8 nM | τoff (mSlo1/β4(N123V) channel): 53.3 s | τon (block at 1 μM ChTX) (mSlo1/β4(N123V) channel): 3.1 s | Kd (mSlo1/β4(N123F) channel): 47.1 nM | τoff (mSlo1/β4(N123F) channel): 670 s | τon (block at 1 μM ChTX) (mSlo1/β4(N123F) channel): 30.1 s | Kd (mSlo1/β4(N123E) channel [3]): 80.8 nM | τoff (mSlo1/β4(N123E) channel [3]): 138 s | τon (block at 1 μM ChTX) (mSlo1/β4(N123E) channel [3]): 10.3 s | Kd (mSlo1/β4(N123K) channel [4]): 44.3 nM | τoff (mSlo1/β4(N123K) channel [4]): 314 s | τon (block at 1 μM ChTX) (mSlo1/β4(N123K) channel [4]): 13.3 s | τon (block at 1 μM ChTX) (mSlo1/β4 channel [5]): 60.9 s | Kd (mSlo1/β4(N123Y) channel): 291 nM | τoff (mSlo1/β4(N123Y) channel): 26.2 s | τon (block at 1 μM ChTX) (mSlo1/β4(N123Y) channel): 5.9 s | Kd (mSlo1/β4(N123A) channel [6]): 96.8 nM | τoff (mSlo1/β4(N123A) channel [6]): 816 s | τon (block at 1 μM ChTX) (mSlo1/β4(N123A) channel [6]): 72 s | Kd (mSlo1/β4(N123L) channel): 41.9 nM | τoff (mSlo1/β4(N123L) channel): 171 s | τon (block at 1 μM ChTX) (mSlo1/β4(N123L) channel): 6.9 s | Kd (mSlo1/β4(N123I) channel): 119 nM | τoff (mSlo1/β4(N123I) channel): 38.5 s | τon (block at 1 μM ChTX) (mSlo1/β4(N123I) channel): 4.1 s | Kd [7]: 193 nM | τoff [7]: 21.6 s | τon (block at 1 μM ChTX) [7]: 3.5 s | Kd (mSlo1/β4(N123R) channel [8]): 329 nM | τoff (mSlo1/β4(N123R) channel [8]): 85.3 s | τon (block at 1 μM ChTX) (mSlo1/β4(N123R) channel [8]): 21.1 s | inhibition of channel currents by 1 μM ChTX (outside-out patches, HEK293) (mSlo1/β4(N123D) channel [9]): 46.9% | inhibition of channel currents by 1 μM ChTX (outside-out patches, HEK293) (mSlo1/β4(N123E) channel [10]): 96% | inhibition of channel currents by 1 μM ChTX (outside-out patches, HEK293) (mSlo1/β4(N123K) channel [11]): 89.1% | inhibition of channel currents by 1 μM ChTX (outside-out patches, HEK293) (mSlo1/β4 channel [12]): 22.2% | inhibition of channel currents by 1 μM ChTX (outside-out patches, HEK293) (mSlo1/β4(N123A) channel [13]): ~90% | inhibition of channel currents by 1 μM ChTX (outside-out patches, HEK293) (mSlo1/β4(N123R) channel [14]): 36.4%
